The data set deals with Glutathione S-transferase (GST) (UniProt P08515 1-218). The data set is described as follows: bead fluorescence, confocal microscopy; 37 °C; BB: 20 mM HEPES pH 7.4, 120 mM NaCl, 5 mM KCl, 2 mM MgCl2; wash BB + 0.05% Tween 20; 37 °C, 40 min (section 2.1 gives another binding buffer: DPBS, 5 mM MgCl2). The conditions noted are these: protein: recombinant, tags: biotinylated, on streptavidin agarose beads, chain copies: 2.

The Kd is the constant that tells how readily two partners part at equilibrium.

Sequence of Glutathione S-transferase (GST) (P08515 whole entry): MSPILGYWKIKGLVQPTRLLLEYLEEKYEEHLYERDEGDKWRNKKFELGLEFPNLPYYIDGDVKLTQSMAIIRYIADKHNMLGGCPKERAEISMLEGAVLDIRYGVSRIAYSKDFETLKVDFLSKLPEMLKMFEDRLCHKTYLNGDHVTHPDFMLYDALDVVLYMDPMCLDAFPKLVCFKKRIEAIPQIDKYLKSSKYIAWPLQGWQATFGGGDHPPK

B1: Seq3-2 (ssDNA)
DNA: AGCGTCGGATACCACTACTATGCCGGTCGGGGGTTGGGGATCTCTCTTGGGGGAGGGTT
As for B1, where the note is “label: FAM”, the dissociation constant (Kd) worked out at 118 ± 21.7 nM.
For TGCCGGTCGGGGGTTGGGGATCTCTCTTGGGGGAGGGTT (ssDNA) [Seq3-3], the Kd (label: FAM) worked out at 268 ± 89.4 nM.

B2: Seq3 (ssDNA)
DNA: AGCGTCGGATACCACTACTATGCCGGTCGGGGGTTGGGGATCTCTCTTGGGGGAGGGTTATCATGGAGTTCGTGGTCAG
Regarding B2, the Kd (label: FAM (also called AF488), two small stem-loops with a large loop (Mfold)) was found to be 34 ± 5.6 nM.

B3: Seq3-1 (ssDNA)
DNA: TGCCGGTCGGGGGTTGGGGATCTCTCTTGGGGGAGGGTTATCATGGAGTTCGTGGTCAG
Regarding B3, the Kd (label: FAM) was 29.3 ± 4.8 nM.

The values above are taken from paper PMC11505714, “A Double-Stranded Aptamer for Highly Sensitive Fluorescent Detection of Glutathione S-Transferases”.
